US20090062197A1 (FULCRUM SP, published 2009)

B1: SP1 variant Δ2-6 E72C (other)
chain: MKLVKHTLLTRFKDEITREQIDNYINDYTNLLDLIPSMKSFNWGTDLGMESAELNRGYTHAFESTFCSKSGLQEYLDSAALAAFAEGFLPTLSQRLVIDYFLY
B2: CRGD SP1 (tumor recognition peptide CRGD inserted into the SP1 N-terminus) (other)
chain: MCRGDATRTPKLVKHTLLTRFKDEITREQIDNYINDYTNLLDLIPSMKSFNWGTDLGMESAELNRGYTHAFESTFESKSGLQEYLDSAALAAFAEGFLPTLSQRLVIDYFLY
notes: also called CRGD2
B3: RGDC SP1 (tumor recognition peptide RGDC inserted into the SP1 N-terminus) (other)
chain: MRGDCATRTPKLVKHTLLTRFKDEITREQIDNYINDYTNLLDLIPSMKSFNWGTDLGMESAELNRGYTHAFESTFESKSGLQEYLDSAALAAFAEGFLPTLSQRLVIDYFLY
notes: also called RGDC2
B4: SP1 (wild type, stress related SP1 protein from aspen) (other)
chain: MATRTPKLVKHTLLTRFKDEITREQIDNYINDYTNLLDLIPSMKSFNWGTDLGMESAELNRGYTHAFESTFESKSGLQEYLDSAALAAFAEGFLPTLSQRLVIDYFLY
notes: Full length SP1 without any additional tag, expressed in E. coli; it self-assembles into a dodecamer; also called WT; wild type SP1
B5: SP1 variant I30A (other)
chain: MATRTPKLVKHTLLTRFKDEITREQIDNYANDYTNLLDLIPSMKSFNWGTDLGMESAELNRGYTHAFESTFESKSGLQEYLDSAALAAFAEGFLPTLSQRLVIDYFLY
B6: SP1 variant R23A (other)
chain: MATRTPKLVKHTLLTRFKDEITAEQIDNYINDYTNLLDLIPSMKSFNWGTDLGMESAELNRGYTHAFESTFESKSGLQEYLDSAALAAFAEGFLPTLSQRLVIDYFLY
B7: SP1 variant Y108A (other)
chain: MATRTPKLVKHTLLTRFKDEITREQIDNYINDYTNLLDLIPSMKSFNWGTDLGMESAELNRGYTHAFESTFESKSGLQEYLDSAALAAFAEGFLPTLSQRLVIDYFLA
B8: SP1 variant E68A (other)
chain: MATRTPKLVKHTLLTRFKDEITREQIDNYINDYTNLLDLIPSMKSFNWGTDLGMESAELNRGYTHAFASTFESKSGLQEYLDSAALAAFAEGFLPTLSQRLVIDYFLY
B9: SP1 variant N31A (other)
chain: MATRTPKLVKHTLLTRFKDEITREQIDNYIADYTNLLDLIPSMKSFNWGTDLGMESAELNRGYTHAFESTFESKSGLQEYLDSAALAAFAEGFLPTLSQRLVIDYFLY
B10: SP1 variant T34A (other)
chain: MATRTPKLVKHTLLTRFKDEITREQIDNYINDYANLLDLIPSMKSFNWGTDLGMESAELNRGYTHAFESTFESKSGLQEYLDSAALAAFAEGFLPTLSQRLVIDYFLY
B11: SP1 variant D27A (other)
chain: MATRTPKLVKHTLLTRFKDEITREQIANYINDYTNLLDLIPSMKSFNWGTDLGMESAELNRGYTHAFESTFESKSGLQEYLDSAALAAFAEGFLPTLSQRLVIDYFLY
B12: SP1 variant D38A (other)
chain: MATRTPKLVKHTLLTRFKDEITREQIDNYINDYTNLLALIPSMKSFNWGTDLGMESAELNRGYTHAFESTFESKSGLQEYLDSAALAAFAEGFLPTLSQRLVIDYFLY
B13: SP1 variant Δ2-6 I40C (other)
chain: MKLVKHTLLTRFKDEITREQIDNYINDYTNLLDLCPSMKSFNWGTDLGMESAELNRGYTHAFESTFESKSGLQEYLDSAALAAFAEGFLPTLSQRLVIDYFLY
B14: ΔNSP1 (N-terminal deleted SP1, deletion of amino acids 2-6) (other)
chain: MKLVKHTLLTRFKDEITREQIDNYINDYTNLLDLIPSMKSFNWGTDLGMESAELNRGYTHAFESTFESKSGLQEYLDSAALAAFAEGFLPTLSQRLVIDYFLY
notes: Recombinant variant, E. coli; also called Δ2-6; SP1 ΔN
B15: SP1 variant Δ2-7 Cys2 (other)
chain: MCLVKHTLLTRFKDEITREQIDNYINDYTNLLDLIPSMKSFNWGTDLGMESAELNRGYTHAFESTFESKSGLQEYLDSAALAAFAEGFLPTLSQRLVIDYFLY
B16: SP1 variant Δ2-6 His2 (other)
chain: MHKLVKHTLLTRFKDEITREQIDNYINDYTNLLDLIPSMKSFNWGTDLGMESAELNRGYTHAFESTFESKSGLQEYLDSAALAAFAEGFLPTLSQRLVIDYFLY
B17: SP1 variant F106A 6XH2 (other)
chain: MHHHHHHATRTPKLVKHTLLTRFKDEITREQIDNYINDYTNLLDLIPSMKSFNWGTDLGMESAELNRGYTHAFESTFESKSGLQEYLDSAALAAFAEGFLPTLSQRLVIDYALY
B18: SP1 variant S73A S75A 6XH2 (other)
chain: MHHHHHHATRTPKLVKHTLLTRFKDEITREQIDNYINDYTNLLDLIPSMKSFNWGTDLGMESAELNRGYTHAFESTFEAKAGLQEYLDSAALAAFAEGFLPTLSQRLVIDYFLY
B19: 6HSP1 (six histidine N-terminal tagged SP1) (other)
chain: MHHHHHHATRTPKLVKHTLLTRFKDEITREQIDNYINDYTNLLDLIPSMKSFNWGTDLGMESAELNRGYTHAFESTFESKSGLQEYLDSAALAAFAEGFLPTLSQRLVIDYFLY
notes: also called 6H2; SP1 6H
B20: SP1 variant N31A T34A 6XH2 (other)
chain: MHHHHHHATRTPKLVKHTLLTRFKDEITREQIDNYIADYANLLDLIPSMKSFNWGTDLGMESAELNRGYTHAFESTFESKSGLQEYLDSAALAAFAEGFLPTLSQRLVIDYFLY
B21: SP1 variant D38A S75A 6XH2 (other)
chain: MHHHHHHATRTPKLVKHTLLTRFKDEITREQIDNYINDYTNLLALIPSMKSFNWGTDLGMESAELNRGYTHAFESTFESKAGLQEYLDSAALAAFAEGFLPTLSQRLVIDYFLY
B22: SP1 variant HH2 (other)
chain: MHHATRTPKLVKHTLLTRFKDEITREQIDNYINDYTNLLDLIPSMKSFNWGTDLGMESAELNRGYTHAFESTFESKSGLQEYLDSAALAAFAEGFLPTLSQRLVIDYFLY
B23: SP1 variant Δ2-6 L81C (other)
chain: MKLVKHTLLTRFKDEITREQIDNYINDYTNLLDLIPSMKSFNWGTDLGMESAELNRGYTHAFESTFESKSGLQEYCDSAALAAFAEGFLPTLSQRLVIDYFLY
B24: SP1 variant Cys2loop1RGd (Cys2 K18R Gly19) (other)
chain: MCATRTPKLVKHTLLTRFRGDEITREQIDNYINDYTNLLDLIPSMKSFNWGTDLGMESAELNRGYTHAFESTFESKSGLQEYLDSAALAAFAEGFLPTLSQRLVIDYFLY

Molecular target: the molecule itself
Test: homo-oligomer complex formation after inclusion body refolding (footnote 10), SDS-PAGE, proteinase digestion of monomers

Binding result, binds:
B1

Molecular target: the molecule itself
Test: homo-oligomer complex formation, SDS-PAGE of unboiled samples

Binding result, binds:
B2
B3
B4
B5
B6
B7
B8
B9
B10
B11
B12
B13
B14
B15
B16
B17
B18
B19
B20
B21
B22

Molecular target: the molecule itself
Test: homo-oligomer complex formation after inclusion body refolding, SDS-PAGE, proteinase digestion of monomers

Binding result, binds:
B23
B24

Molecular target: B14
Test: co-electro-elution of monomers, Ni-NTA pull-down, Proteinase K, SDS-PAGE

Binding result, binds:
B19
